Substrate in the data set: Nc1ncnc2c1ncn2[C@@H]1O[C@H](COP(=O)(O)OP(=O)(O)OP(=O)(O)O)[C@@H](O)[C@H]1O
Kind of data set: purified protein. Format: biochemical, Homo sapiens. The settings on record: MgCl2 UBA3 nucleotide binding pocket.

B1: UBA3 (NEDD8 activating enzyme, NAE) (Homo sapiens) (protein)
chain: ADGEEPEKKRRRIEELLAEKMAVDGGCGDTGDWEGRWNHVKKFLERSGPFTHPDFEPSTESLQFLLDTCKVLVIGAGGLGCELLKNLALSGFRQIHVIDMDTIDVSNLNRQFLFRPKDIGRPKAEVAAEFLNDRVPNCNVVPHFNKIQDFNDTFYRQFHIIVCGLDSIIARRWINGMLISLLNYEDGVLDPSSIVPLIDGGTEGFKGNARVILPGMTACIECTLELYPPQVNFPMCTIASMPRLPEHCIEYVRMLQWPKEQPFGEGVPLDGDDPEHIQWIFQKSLERASQYNIRGVTYRLTQGVVKRIIPAVASTNAVIAAVCATEVFKIATSAYIPLNNYLVFNDVDGLYTYTFEAERKENCPACSQLPQNIQFSPSAKLQEVLDYLTNSASLQMKSPAITATLEGKNRTLYLQSVTSIEERTRPNLSKTLKELGLVDGQELAVADVTTPQTVLFKLHFTS
As for B1, the Km worked out at 243 µM.

B2: UBA3 A171T (NEDD8 activating enzyme, NAE (UBA3 A171T)) (Homo sapiens; A171T) (protein)
chain: ADGEEPEKKRRRIEELLAEKMAVDGGCGDTGDWEGRWNHVKKFLERSGPFTHPDFEPSTESLQFLLDTCKVLVIGAGGLGCELLKNLALSGFRQIHVIDMDTIDVSNLNRQFLFRPKDIGRPKAEVAAEFLNDRVPNCNVVPHFNKIQDFNDTFYRQFHIIVCGLDSIITRRWINGMLISLLNYEDGVLDPSSIVPLIDGGTEGFKGNARVILPGMTACIECTLELYPPQVNFPMCTIASMPRLPEHCIEYVRMLQWPKEQPFGEGVPLDGDDPEHIQWIFQKSLERASQYNIRGVTYRLTQGVVKRIIPAVASTNAVIAAVCATEVFKIATSAYIPLNNYLVFNDVDGLYTYTFEAERKENCPACSQLPQNIQFSPSAKLQEVLDYLTNSASLQMKSPAITATLEGKNRTLYLQSVTSIEERTRPNLSKTLKELGLVDGQELAVADVTTPQTVLFKLHFTS
Turning to B2, the Km worked out at 1006 µM.
